Test results taken from patent US20020131964A1.

Assays:
[1] = target: two chain urokinase (tcuPA) (Homo sapiens (Human)) (UniProt P00749); assay: cell-based or functional assay
[2] = target: wild type single chain urokinase (scuPA) (Homo sapiens (Human)) (UniProt P00749); assay: cell-based or functional assay

“soluble recombinant human urokinase receptor (suPAR) (from UniProt Q03405 23-299)” was tested, and the EC50 of phenylepherine (PE)-induced contraction of rat aortic rings [1] was 29 nM and the EC50 of phenylepherine (PE)-induced contraction of rat aortic rings [2] was 29 nM.
